Measured values as given in US20080318839A1.

What was measured:
[1] = target: Cf2-PBD-VP64 (human) (UniProt P06401); assay: cell-based or functional assay
[2] = target: ER-VP64 (mouse) (UniProt P19785); assay: cell-based or functional assay
ER-VP64 (mouse), sequence (P19785 282-599 G525R): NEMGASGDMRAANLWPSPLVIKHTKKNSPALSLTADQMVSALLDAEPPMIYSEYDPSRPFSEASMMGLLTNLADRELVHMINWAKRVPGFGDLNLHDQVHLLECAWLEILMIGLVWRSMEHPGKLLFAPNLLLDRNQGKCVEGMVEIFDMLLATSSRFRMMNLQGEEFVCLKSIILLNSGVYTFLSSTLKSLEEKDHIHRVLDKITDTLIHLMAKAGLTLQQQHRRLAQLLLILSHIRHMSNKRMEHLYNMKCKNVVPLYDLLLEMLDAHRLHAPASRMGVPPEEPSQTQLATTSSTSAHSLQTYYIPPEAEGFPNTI

Cf2-PBD-VP64 (human), sequence (P06401 640-914): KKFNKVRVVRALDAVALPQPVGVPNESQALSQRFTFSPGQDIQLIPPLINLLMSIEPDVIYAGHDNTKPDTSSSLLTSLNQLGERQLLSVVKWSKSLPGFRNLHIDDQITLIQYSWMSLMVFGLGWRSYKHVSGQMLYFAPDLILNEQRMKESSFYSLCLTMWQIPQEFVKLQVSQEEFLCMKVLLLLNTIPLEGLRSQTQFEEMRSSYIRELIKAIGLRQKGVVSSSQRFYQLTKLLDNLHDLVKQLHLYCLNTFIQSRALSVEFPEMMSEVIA
C7-PBD-VP64, sequence (P06401 640-914): as above

Substance	ligand-dependent change in transcription, C7-Cf2 TATA luciferase reporter [1] [fold]	luciferase assay, erbB-2 promoter activity in HeLa cells, with Tamoxifen [2] [fold]	tamoxifen-dependent activation of the erbB-2 promoter (luciferase) [2] [fold]
C7-PBD-VP64 (from UniProt P06401 640-914)	2		
E2C-ER (from UniProt P19785 282-599)		3	5.3
